US6495144B2, “EBNA2 peptides and methods of using same” (Johns Hopkins University School of Medicine, priority 1996, dated 2002)
Changes are numbered by the printed parent chain.

B1: SR360VD (PKC): EBNA2 with mutation of the putative PKC phosphorylation site (protein)
chain: MPTFYLALHGGQTYHLIVDTDSLGNPSLSVIPSNPYQEQLSDTPLIPLTIFVGENTGVPPPLPPPPPPPPPPPPPPPPPPPPPPPPPPSPPPPPPPPPPPQRRDAWTQEPSPLDRDPLGYDVGHGPLASAMRMLWMANYIVRQSRGDRGLILPQGPQTAPQARLVQPHVPPLRPTAPTILSPLSQPRLTPPQPLMMPPRPTPPTPLPPATLTVPPRPTRPTTLPPTPLLTVLQRPTELQPTPSPPRMHLPVLHVPDQSMHPLTHQSTPNDPDSPEPRSPTVFYNIPPMPLPPSQLPPPAAPAQPPPGVINDQQLHHLPSGPPWWPPICDPPQPSKTQGQSRGQSRGRGRGRGRGRGKGKVDDKQRKPGGPWRPEPNTSSPSMPELSPVLGLHQGQGAGDSPTPGPSNAAPVCRNSHTATPNVSPIHEPESHNSPEAPILFPDDWYPPSIDPADLDESWDYIFETTESPSSDEDYVEGPSKRPRPSIQ
B2: LGL389SRT (CR7): EBNA2 with LGL at position 389 in CR7 changed to SRT (protein)
chain: B1 chain with V360S, D361R, L389S, G390R, L391T

Experiments:
CBF1/RBPJk = molecular target: T1, CBF1/RBPJk (Homo sapiens, UniProt Q06330); assay: EMSA of EBNA2/CBF1 complex formation with in vitro translated EBNA2 peptides; assay type: binding; conditions: for effect in reducing the amounts of EBNA2/CBF1 complex formed: fold, in words
T1 construct: EMSA using CBF1 purified by heparin-agarose chromatography; endogenous in cells; host or cells: CA46 cells (fractionated extract, heparin-agarose)
T1 sequence (Q06330 whole entry): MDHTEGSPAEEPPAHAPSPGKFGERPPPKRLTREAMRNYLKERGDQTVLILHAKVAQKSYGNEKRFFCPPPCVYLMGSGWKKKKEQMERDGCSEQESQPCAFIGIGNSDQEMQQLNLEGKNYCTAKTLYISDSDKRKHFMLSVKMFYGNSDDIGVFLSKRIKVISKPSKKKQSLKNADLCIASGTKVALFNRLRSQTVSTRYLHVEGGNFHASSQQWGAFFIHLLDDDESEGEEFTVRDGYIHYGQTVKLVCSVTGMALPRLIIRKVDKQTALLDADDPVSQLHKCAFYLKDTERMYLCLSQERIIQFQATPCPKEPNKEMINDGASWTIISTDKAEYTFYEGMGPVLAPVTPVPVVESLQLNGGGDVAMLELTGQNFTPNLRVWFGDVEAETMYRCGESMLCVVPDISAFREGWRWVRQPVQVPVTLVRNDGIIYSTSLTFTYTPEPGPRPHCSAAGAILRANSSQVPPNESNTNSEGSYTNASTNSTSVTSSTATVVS
Excerpt: FIG. 3 is an autoradiogram that depicts the effect of mutations on the ability of an EBNA2 (i.e., E2) peptide comprising amino acids 252-425 to interact with CBF1/RBPJk: probe (lane 1); E2 only (lane 2); lysate (lane 3); CBF1 (lane 4); CBF1 and lysate (lane 5); CBF1 and E2 252-425 (lane 6); CBF1 and del376-425 (lane 7); CBF1 and del343-425 (lane 8); CBF1 and del252-366 (lane 9); CBF1 and del252-309, del398-425 (lane 10); CBF1 and del344-357 (lane 11); CBF1 and II307SR (CR5) (lane 12); CBF1 and GP320SR (CR6) (lane 13); CBF1 and WW323SR (CR6) (lane 14); CBF1 and PI326SR (CR6) (lane 15); CBF1 and SR360VD (PKC) (lane 16); and CBF1 and LGL389SRT (CR7) (lane 17). Results of an EMSA using CBF1 purified by heparin-agarose chromatography and a 30-base pair oligonucleotide probe containing the Cp CBF1 binding site (Ling et al. (1993a), supra) are shown. The wild-type EBNA2 and mutant EBNA2 peptides spanning amino acids 252-425 were in vitro transcribed and translated, and equimolar amounts were added to the binding reactions. Addition of unprogrammed reticulocyte lysate to the CBF1 extract (+lysate) produced a minor bandshift that migrated in the range of the E2/CBF1 complex. The EBNA2/CBF1 complexes (i.e., E2/CBF1 complexes) vary in mobility depending on the size of the added EBNA2 peptide.
FIG. 6 is an EMSA that compares the ability of type A EBNA2 (i.e., EBNA2 comprising amino acids 252-425) and the homologous domains of type B (i.e., EBNA2 comprising amino acids 216-392) and HVP EBNA2 (i.e., HBP EBNA2 comprising amino acids 288-470) to form complexes with CBF1/RBPJk. The EBNA2 peptides and CBF1/RPBPJk were prepared by in vitro transcription and translation. EBNA2 peptides were added with two-fold increases in amount (black triangles) to a binding mixture containing a constant amount of CBF1/RBPJk and a 30-base pair Cp CBF1 binding site probe. Symbols: P, probe only; R, reticulolysate.
The relative positions of the various functional domains the EBNA2 protein are depicted in FIG. 1. To define the amino acids required for interaction with CBF1, various synthetic peptides comprising the promoter targeting domain (i.e., the CBF1/RBPJk interaction domain) were constructed. The truncated and mutated peptides diagrammed in FIG. 2 were synthesized by in vitro transcription-translation, and were tested for their ability to form complexes with CBF1 that could be detected in an electrophoretic mobility shift assay (EMSA) (Ling et al., J. Virol., 69, 1944-1950 (1995)). The expressed peptides were tested using a fractionated extract of EBV negative lymphoblastoid CA46 cells (American Type Culture Collection, Rockville, Md.). The peptides were labeled with ^35S-methionine, and their integrity was confirmed by sodium dodecylsulfate sulfate-polyacrylamide gel electrophoresis (SDS-PAGE). To ensure that equal amounts of the EBNA2 peptides were added to each binding reaction mixture, the SDS-PAGE bands were quantitated using a Molecular Dynamics Phosphorimager, and the volume of the samples was adjusted on the basis of peptide size and the number of methionine residues.

[1] = tested on: EBV latency C promoter (Cp-CAT); assay: Cp-CAT transactivation by EBNA2 effector DNAs cotransfected in DG75 cells; assay type: cell-based, Epstein-Barr virus; conditions: for transactivation of Cp-CAT, dose-response, in words: 0-2.0 μg effector DNA, 2 μg target; for % Transactivation: relative EBNA2 transactivation of the Cp, at DNA concentrations giving 50% acetylation for wild-type EBNA2, mutations in full-length EBNA2
Method: FIGS. 4A-4B are graphs that depict μg effector versus % acetylation for transactivation in DG75 cells of a Cp-CAT construction (Ling et al. (1993b), supra) cotransfected at 2 μg with increasing amounts (i.e., 0, 0.25, 0.5, 1.0 and 2.0 μg) of the indicated EBNA2 effector DNAs. Immunoblot analysis confirmed the equivalent expression of the different EBNA2 effector constructions in transfected cells.
FIGS. 7A-7B are graphs that depict μg effector versus fold-induction for cotransfection assays comparing the ability of type A EBNA2 and type B EBNA2 to transactivate expression from Cp-CAT (FIG. 7A) and CD23p-CAT (FIG. 7B) (Ling et al. (1994), supra) in DG75 cells. The target plasmids were transfected at a constant amount (2 μg) and the effector DNAs at increasing amounts of 0, 0.25, 0.5, 1.0 and 2.0 μg.
In order to correlate the effect of the mutations on CBF1 interaction measured in the in vitro binding assays with the effects on CBF1 interaction in vivo in cultured cells, the point mutations and the glycine-arginine deletion were incorporated into full-length EBNA2 proteins which were used to study EBNA2 targeting in transactivation assays. The mutant proteins were synthesized in equal abundance in transfected cells as assessed by Western blot analysis. FIGS. 4A and 4B compare the ability of wild-type and mutant EBNA2 proteins to transactivate expression from the EBV latency C promoter in a dose-response assay (Ling et al. (1993b), supra).

Row | Molecule | reduction in EBNA2/CBF1 complex formation (CBF1/RBPJk; 252-425 peptide with mutation, relative to wild-type peptide) [%] | effect in reducing the amounts of EBNA2/CBF1 complex formed (CBF1/RBPJk) | transactivation of Cp-CAT, dose-response, in words [1] | % Transactivation [1] [%]
1 | B1 | 40 | approximately two-fold | did not affect transactivation | 110
2 | B2 | – | approximately two-fold | did not affect transactivation | 100
